Values of other authors in paper PMC7714071, “Interaction of amyloid beta with humanin and acetylcholinesterase is modulated by ATP” (FEBS Open Bio, 2020).

Tests used:
H1299 cells = details: cited from earlier work
Aβ42 = details: binds directly to Aβ42; cited from earlier work
Excerpt: Almost all types of cells produce amyloid beta (Aβ), a peptide well recognized for its role in the development and progression of different stages of Alzheimer's disease (AD). The Aβ peptide is ~ 4 kDa and derived from the sequential processing of the higher molecular weight amyloid precursor protein by two membrane‐bound endoproteases, β‐ and γ‐secretase. Different C‐terminal Aβ heterogeneity results from processing by γ‐secretase, where Aβ40 represents the most abundant isoform (~ 90%) as compared to Aβ42 (~ 10%). Self‐assembled Aβ40/42 peptides into amyloid fib ... || Amino acid residues involved in direct interactions between HN and Aβ40 were identified previously by molecular modeling. The specific epitopes at the binding interface between HN and Aβ40 were identified, by proteolytic epitope excision and extraction in addition to affinity–mass spectrometric data analysis, to be HN (5–15) and Aβ (17–28). […] Inhibiting the 17–28 region of Aβ reduced aggregation of the neurotoxic amyloid fibrils and related cytotoxicity in SH‐SY5Y, a human neuroblastoma cell ... || Acetylcholinesterase (AChE) is an enzyme known for its role in terminating acetylcholine‐mediated neurotransmission at the synaptic cleft. The majority of the cortical AChE in the Alzheimer's brain is mainly associated with the amyloid core of senile plaques. […]

For Humanin [HN], the “cell viability upon ID of HN” value (H1299 cells; HN immunodepleted from H1299 conditioned media) is given as “diminished cell viability”, the “apoptosis upon ID of HN” value (H1299 cells; HN-ID H1299 media) is given as “increased apoptosis” and the antioligomeric activity (Aβ42) is given as “exhibit antioligomeric activity”.
